Values joined by “and” are separate entries in the source; they are usually repeats but may differ in a detail not shown here. Identical values can stand only once. Ends that are not written are not given here.
Columns and labels:
[1] = biological target: T1, E. coli K-12 BamA β-barrel (residues 421–810), N-terminally biotinylated (E. coli K-12 (strain MG1655), UniProt P0A940 421-810, biotin on the N-terminal Avitag (BirA ligase)); assay: SPR
[2] = biological target: T1, E. coli K-12 BamA β-barrel (residues …); assay: SPR; remark: listed apart in the source
[3] = biological target: T1, E. coli K-12 BamA β-barrel (residues …); assay: SPR; apparent, BamA pre-equilibrated with 2 uM darobactin

Binder	koff [1]	Kd [2]	Kd [3]
WNWSKSF (also: post-translationally formed bicyclic ring structures) [darobactin]	0.012 s⁻¹		
FLWFYHRPVRGFDCG (also: cyclic peptide, closure not given here) [cyclic peptide CP1]	0.0023 s⁻¹	6.6 nM and ~8 nM	~5 nM

Source: article PMC11986105 (2025)
